The record followed here is patent US7303752B2, “Hookworm vaccine” (The George Washington University, priority 2001, dated 2007).

The test system of assay [1] is A. caninum. The experiment in a line: Canine vaccine trial with Ac-TTR and SBAS2, L3 challenge: worm burden, blood loss, worm size. The format is in vivo, dog. The protocol: E. coli derived antigens Ac-MTP-1 and Ac-TTR were tested in vaccine trials in dogs. Antigens were administered with adjuvant SBAS2. […] Subsequently the dogs were challenged by subcutaneous injection of L3 hookworm larvae.
Animals were also tested to ascertain whether vaccination with hookworm antigens protected against blood loss. […] Using the Mann-Whitney test, the differences in both hemoglobin (38B) concentration (P=0.036) and hematocrit (38A) concentration (P=0.009) between the TTR and adjuvant control groups were statistically significant.
Further, the differences in hemoglobin concentration translated to a statistically significant reduction in worm size. Data was collected using an imaging system based on scans of the worms recovered from a host. Worms were photographed with a CoolSnapPro digital camera (Media Cybernetics), and the images measured in ImagePro Software using a macro to determine worm length (in mm) compared between treatments. As shown in FIG. 39 there was a statistically significant reduction in worm size (between 1 and 2 mm) among the TTR vaccinated group relative to the adjuvant control group.

Assay [2] concerns A. caninum. The experiment in a line: Canine vaccine trial with Ac-MTP-1, subcutaneous challenge with 500 A. caninum L3. The format is in vivo, dog. The text has this:
To test whether Ac-MTP-1 could be an effective vaccine, two groups of five (5) purpose-bred male beagles 8+1 wk of age were vaccinated either with the recombinant (expressed and isolated from Escherichia coli) fusion protein formulated with AS02A adjuvant, or adjuvant alone. The composition of AS02A, which has been successfully used in several malaria vaccine clinical studies, is described elsewhere (Lalvani et al, 1999; Bojang et al, 2001; Kester et al, 2001). Details of the animal husbandry and housing conditions were reported previously (Hotez et al, 2002a). The recombinant fusion protein containing a polyhistidine tag was purified from washed E. coli inclusion bodies that were solubilized in 6 M guanidine-HCl in 10 mM Tris HCl, pH 8.0. The solubilized inclusion bodies were processed in 5-10 ml batches by gel filtration chromatography (Sephacryl S-300, 26/60 gel filtration column [Amersham Pharmacia] pre-equilibrated in a buffer containing 0.1 NaH2PO4, 10 mM Tris-HCl and 6 M guanidine) at room temperature (flow rate of 2 ml/minute). Selected fractions containing Ac-MTP-1 (as determined by analysis on sodium dodecyl sulfate-polyacrylamide gel electrophoresis [SDS-PAGE]) were pooled, refolded according to the method of Singh et al (2001), and then loaded onto a 5 ml Hi-Trap IMAC column (Amersham Pharmacia) charged with ZnCl2 and equilibrated in 50 mM sodium phosphate pH 7.2, 1 M urea, and 0.5 M NaCl. The column was subsequently washed with 15 column volumes of equilibration buffer, and the bound protein was eluted with 50 mM sodium phosphate pH7.2, 1 M urea, 0.5 M NaCl, and 50 mM ethylenediamine tetraacetic acid (EDTA). Eluted samples containing protein were pooled and dialyzed against 10 mM Tris-HCl pH 8.0, 5% glycerol, 1 mM dithiothreitol, and 2 mM EDTA.
The recombinant Ac-MTP-1 fusion protein was mixed with SBAS2 adjuvant and administered to each of five dogs in four intramuscular injections on days 1, 4, 43, and 50. […] Antigen-specific canine IgG2 and IgE antibodies were measured by indirect enzyme-linked immunosorbent assay (ELISA) as described previously (Hotez et al, 2002a). […] Quantitative hookworm egg counts (McMaster technique) on each dog were obtained 3 days per wk beginning on day 12 post-infection (PI). Five wk post-infection, the dogs were killed by intravenous barbituate injection, and the adult hookworms were recovered and counted from the small and large intestines at necropsy (Hotez et al., 2002c). The statistical significance of differences between adult hookworm burdens was determined using the Anova test, as were differences in hematological parameters and in quantitative hookworm egg counts. Comparisons of hookworm burden and egg counts with antibody titers were measured using Spearman rank order (nonparametric) correlations. […]

B1: Ac-TTR-1: A. caninum transthyretin antigen, SEQ ID NO: 30; E. coli derived, given with SBAS2 (protein, listed as Ancylostoma caninum)
chain: MIQLFLLALVPMCISVREQSIAVKGRLLCGDQPAANVRVKLWEEDTGPDPDDLLDAGYTNSNGEFQLQGGTIETTPIDPVLKIYHDCNDVTGFLSVPKPGSRKVRFSLPDKYISDGMVPKKVMDIGVINLEVEFEKEGREFIVD
The molecule B1 yielded a reduced hookworm burden in assay [1] (one dog with high IgE and IgG1 antibody to TTR) of 6%. In assay [1] (versus adjuvant control, hemoglobin P=0.036, hematocrit P=0.009), the “protection against blood loss (hemoglobin, hematocrit)” value was “significant protection against blood loss”.

B2: Ac-MTP-1: A. caninum L3 astacin zinc metalloprotease, SEQ ID NO: 16 (also listed as SEQ ID NO: 40); E. coli fusion protein (protein, listed as Ancylostoma caninum)
chain: MRVLLLLLLLSICASAGFLDTKFGQKIKKTLDKIKAVLNGTALIAIREKFIRLREKIKAKLTLSPARKAILDEVMKHIKMIKKDKIQEKGDSIDEINEKSAIGQLLYQGDIVLTEKQAQQITEDIENDKGDREKRQAFRDRNYPRTLWSKGVYFHFHRNATPEVRSVFVKGAKLWMKDTCIDFFESNSAPDRIRVFKENGCWSYVGRLGGEQDLSLGEGCQSVGTAAHEIGHAIGFYHTHARHDRDNFITFNAQNVKPDWLDQFTLQTPATNENYGITYDYGSIMHYGANSASQNGRPTMVPHDPKYVETLGINKHYDCTKNCDPATSAQCKMGGFPHPRDCTRCICPSGYGGKLCDQKPAGCGSIYQATNQYQTLHDEIGDKRAGQRPREDMDFCYYWITAPKGSKIEIKIAGLSQGAAVEGCQYWGVEIKTHADQRLTGYRFCAPEDVGVRLVSNFNIVPIITYNIFYATYVDIQYRIVGDNVGGPMPQPQPNSNCVDNEQCATLVRTKNFCQSRFFTSSVKRGLCPKSSGFCR
On to B2, for which, in assay [2] (dog, in vivo), the “reduction in worm burden, dog with highest versus dog with lowest antibody titer” value worked out at 50%. Further, in assay [2] (single vaccinated dog), the “hookworms recovered from the dog with the highest antibody titer” value is on record as 98 hookworms and the “hookworms recovered from the dog with the lowest antibody titer” value was 189 hookworms. In assay [2] (vaccinated dogs, 5 wk after 500 L3 s.c., control dogs 143+30, not significant), the “number of adult hookworms recovered (mean+standard deviation)” value is listed as 154+34 hookworms.
